Assay [1] addresses recombinant His-tagged full-length pneumococcal histidine triad protein D (PhtD) from strain TCH8431 (serotype 19A) (Streptococcus pneumoniae strain TCH8431 (serotype 19A)). As to the kind of experiment: ELISA on coated recombinant PhtD, non-linear regression fit.
For assay [2], the target named is PhtD, serotype 2 (Streptococcus pneumoniae). As to the kind of experiment: flow cytometry on whole bacteria, serotype 2, mAb 10 µg/ml, APC anti-human IgG Fc; no mAb 0.6.
The target of assay [3] is PhtD, serotype 6C (Streptococcus pneumoniae). Put plainly: flow cytometry on whole bacteria, serotype 6c, mAb 10 µg/ml, APC anti-human IgG Fc; no mAb 1.3.
Assay [4] concerns the target PhtD, serotype 6D (Streptococcus pneumoniae). As to the kind of experiment: flow cytometry on whole bacteria, serotype 6d, mAb 10 µg/ml, APC anti-human IgG Fc; no mAb 0.4.
Assay [5] concerns the target recombinant His-tagged full-length pneumococcal histidine triad protein D (PhtD) from strain TCH8431 (serotype 19A) (Streptococcus pneumoniae strain TCH8431 (serotype 19A)). Put plainly: competitive BLI, His-tagged PhtD on anti-penta-HIS tips; first mAb PhtD8, then second mAb, each 100 µg/mL; white cell.
Assay [6] deals with PhtD, serotype 9N (Streptococcus pneumoniae). Put plainly: flow cytometry on whole bacteria, serotype 9N, mAb 10 µg/ml, APC anti-human IgG Fc; no mAb 1.5.
Assay [7] concerns the target recombinant His-tagged full-length pneumococcal histidine triad protein D (PhtD) from strain TCH8431 (serotype 19A) (Streptococcus pneumoniae strain TCH8431 (serotype 19A)). Put plainly: competitive BLI, His-tagged PhtD on anti-penta-HIS tips; first mAb PhtD6, then second mAb, each 100 µg/mL; grey cell.
Assay [8] has as its target PhtD, WU2 (3) (Streptococcus pneumoniae). As to the kind of experiment: flow cytometry on whole bacteria, 3 (WU2), mAb 10 µg/ml, APC anti-human IgG Fc; no mAb 1.3.
The target of assay [9] is PhtD protein of pneumococcal strain TIGR4 (serotype 4), native, in bacterial lysates (Streptococcus pneumoniae strain TIGR4 (serotype 4)). Put plainly: flow cytometry on whole bacteria, 4 (TIGR4), mAb 10 µg/ml, APC anti-human IgG Fc; no mAb 0.1.
The target of assay [10] is recombinant His-tagged full-length pneumococcal histidine triad protein D (PhtD) from strain TCH8431 (serotype 19A) (Streptococcus pneumoniae strain TCH8431 (serotype 19A)). As to the kind of experiment: competitive BLI, His-tagged PhtD on anti-penta-HIS tips; first mAb PhtD3, then second mAb, each 100 µg/mL; black cell.
Assay [11] concerns the target PhtD protein of pneumococcal strain TCH8431 (serotype 19A), native, in bacterial lysates (Streptococcus pneumoniae strain TCH8431 (serotype 19A)). As to the kind of experiment: flow cytometry on whole bacteria, 19A (TCH8431), mAb 10 µg/ml, APC anti-human IgG Fc; no mAb 0.4.
The target in assay [12] is PhtD, serotype 12F (Streptococcus pneumoniae). As to the kind of experiment: flow cytometry on whole bacteria, serotype 12F, mAb 10 µg/ml, APC anti-human IgG Fc; no mAb 0.3.
Assay [13] addresses PhtD, serotype 11A (Streptococcus pneumoniae). As to the kind of experiment: flow cytometry on whole bacteria, serotype 11A, mAb 10 µg/ml, APC anti-human IgG Fc; no mAb 0.6.
Assay [14] deals with PhtD 1-343 (Streptococcus pneumoniae). As to the kind of experiment: ELISA on coated MBP-PhtD fragment, OD405.
Assay [15] deals with PhtD 1-170 (Streptococcus pneumoniae). As to the kind of experiment: ELISA on coated MBP-PhtD fragment, OD405.
Assay [16] concerns the target PhtD 168-343 (Streptococcus pneumoniae). As to the kind of experiment: ELISA on coated MBP-PhtD fragment, OD405.
The target in assay [17] is recombinant His-tagged full-length pneumococcal histidine triad protein D (PhtD) from strain TCH8431 (serotype 19A) (Streptococcus pneumoniae strain TCH8431 (serotype 19A)). As to the kind of experiment: ELISA on coated recombinant PhtD, OD405.
For assay [18] the target is unchanged. As to the kind of experiment: competitive BLI, His-tagged PhtD on anti-penta-HIS tips; first mAb PhtD7, then second mAb, each 100 µg/mL; white cell.

B1: human monoclonal antibody PhtD3 (antibody, V domains shown)
VH: QVQLVQSGPDVKKPGSSVKVSCKASGAAFESFAFAWVRQAPGQGFEWMGRIIPILETRDYAEKFQGRMTMTTDESTATAYMELNSLRFEDTAVYFCARDGHIMRTTLSDAALDVWGQGTTVIVSS
VL: DIVMTQSPVTLSLSPGERATLSCRASQSLTDNYLAWYQQKPGQAPRLLIYAASTRATGIPDRISGSGSGTDFTLTISRVEPEDFAMFYCQQYQNSPFTFGGGTTVEIK
As for B1, in [1], the EC50 is 0.045 µg/mL. For the same molecule, the % APC+ in assay [2] is 3.2%; in assay [3], 4.2%; in assay [4], 2.4%; in [6], 28.1%; in [8] it was 16%; in [9] it was 7.2%. The % APC+ is 18.3% in assay [11], 45.8% in assay [12] and 19.6% in assay [13]. Also, the percent binding of the second mAb in the presence of the first mAb amounted to 77% in assay [5], 47% in assay [7], 9% in assay [10] and 81% in assay [18]. The EC50 (read off the curve) in [14], in assay [15], in assay [16] and in assay [17] was 0.1 µg/mL throughout.

B2: PhtD3-IgG2a (recombinant chimera of mAb PhtD3 with a mouse IgG2a Fc region) (antibody, V domains shown)
VH: QVQLVQSGPDVKKPGSSVKVSCKASGAAFESFAFAWVRQAPGQGFEWMGRIIPILETRDYAEKFQGRMTMTTDESTATAYMELNSLRFEDTAVYFCARDGHIMRTTLSDAALDVWGQGTTVIVSS
VL: DIVMTQSPVTLSLSPGERATLSCRASQSLTDNYLAWYQQKPGQAPRLLIYAASTRATGIPDRISGSGSGTDFTLTISRVEPEDFAMFYCQQYQNSPFTFGGGTTVEIK
Consider B2, for which, in assay [17], the EC50 (read off the curve) was 0.05 µg/mL.

These data come from patent publication US20240117019A1.
